# In patent publication US20150045540A1 (published 2015):
# T1: Placenta Growth Factor (PlGF), human (human, UniProt P49763 21-149)
# T1 chain: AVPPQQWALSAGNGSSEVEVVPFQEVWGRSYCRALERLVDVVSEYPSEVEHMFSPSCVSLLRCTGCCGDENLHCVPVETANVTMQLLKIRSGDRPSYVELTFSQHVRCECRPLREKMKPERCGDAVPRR
# B1: HC 6/SLC 2 (antibody)
# chain 1: GQGTLVTVSSASTKGPQPVLHQPPAMSSALGTTIRLTCTLRNDHDIGVYSVYWYQQRPGHPPRFLLRYFSQSDKSQGPQVPPRFSGSKDVARNRGYLSISELQPEDEAMYYCAMGARSRCWPRGFQSKHNSVTHVFGSGTQLTVLSQPKATPSVTLFPPSSEELQANKATLVCLMNDFYPGILTVTWKADGTPITQGVEMTTPSKQSNNKYAASSYLSLTPEQWRSRRSYSCQVMHEGSTVEKTVAPAECS
# chain 2: MSWAPVLLMLFVYCTGCGPQPVLHQPPAMSSALGTTIRLTCTLRNDHDIGVYSVYWYQQRPGHPPRFLLRYFSQSDKSQGPQVPPRFSGSKDVARNRGYLSISVTHVFGSGTQLTVLSQQVQLVQ
# B2: HC 9/SLC 2 (antibody)
# chain 1: GQGTLVTVSSASTKGPSVFQPVLHQPPAMSSALGTTIRLTCTLRNDHDIGVYSVYWYQQRPGHPPRFLLRYFSQSDKSQGPQVPPRFSGSKDVARNRGYLSISELQPEDEAMYYCAMGARSRCWPRGFQSKHNSVTHVFGSGTQLTVLSQPKATPSVTLFPPSSEELQANKATLVCLMNDFYPGILTVTWKADGTPITQGVEMTTPSKQSNNKYAASSYLSLTPEQWRSRRSYSCQVMHEGSTVEKTVAPAECS
# chain 2: B1 chain 2
# B3: HC 5/SLC 9 (antibody)
# chain 1: GQGTLVTVSSASTKGQPVLHQPPAMSSALGTTIRLTCTLRNDHDIGVYSVYWYQQRPGHPPRFLLRYFSQSDKSQGPQVPPRFSGSKDVARNRGYLSISELQPEDEAMYYCAMGARSRCWPRGFQSKHNSVTHVFGSGTQLTVLSQPKATPSVTLFPPSSEELQANKATLVCLMNDFYPGILTVTWKADGTPITQGVEMTTPSKQSNNKYAASSYLSLTPEQWRSRRSYSCQVMHEGSTVEKTVAPAECS
# chain 2: MSWAPVLLMLFVYCTGCGPQPVLHQPPAMSSALGTTIRLTCTLRNDHDIGVYSVYWYQQRPGHPPRFLLRYFSQSDKSQGPQVPPRFSGSKDVARNRGYLSISVTHVFGSGTQLTVLSQPKATPSVQVQLVQ
# B4: HC 5/SLC 4 (antibody)
# chain 1: B3 chain 1
# chain 2: MSWAPVLLMLFVYCTGCGPQPVLHQPPAMSSALGTTIRLTCTLRNDHDIGVYSVYWYQQRPGHPPRFLLRYFSQSDKSQGPQVPPRFSGSKDVARNRGYLSISVTHVFGSGTQLTVLSQPKQVQLVQ
# B5: HC 5/SLC 3 (antibody)
# chain 1: B3 chain 1
# chain 2: MSWAPVLLMLFVYCTGCGPQPVLHQPPAMSSALGTTIRLTCTLRNDHDIGVYSVYWYQQRPGHPPRFLLRYFSQSDKSQGPQVPPRFSGSKDVARNRGYLSISVTHVFGSGTQLTVLSQPQVQLVQ
# B6: HC 6/SLC 9 (antibody)
# chain 1: B1 chain 1
# chain 2: B3 chain 2
# B7: HC 5/SLC 5 (antibody)
# chain 1: B3 chain 1
# chain 2: MSWAPVLLMLFVYCTGCGPQPVLHQPPAMSSALGTTIRLTCTLRNDHDIGVYSVYWYQQRPGHPPRFLLRYFSQSDKSQGPQVPPRFSGSKDVARNRGYLSISVTHVFGSGTQLTVLSQPKAQVQLVQ
# B8: HC 9/SLC 15 (antibody)
# chain 1: B2 chain 1
# chain 2: MSWAPVLLMLFVYCTGCGPQPVLHQPPAMSSALGTTIRLTCTLRNDHDIGVYSVYWYQQRPGHPPRFLLRYFSQSDKSQGPQVPPRFSGSKDVARNRGYLSISVTHVFGSGTQLTVLSQPKATPSVTGGGGSQVQLVQ
# B9: HC 10/SLC 6 (antibody)
# chain 1: GQGTLVTVSSASTKGPSVFPQPVLHQPPAMSSALGTTIRLTCTLRNDHDIGVYSVYWYQQRPGHPPRFLLRYFSQSDKSQGPQVPPRFSGSKDVARNRGYLSISELQPEDEAMYYCAMGARSRCWPRGFQSKHNSVTHVFGSGTQLTVLSQPKATPSVTLFPPSSEELQANKATLVCLMNDFYPGILTVTWKADGTPITQGVEMTTPSKQSNNKYAASSYLSLTPEQWRSRRSYSCQVMHEGSTVEKTVAPAECS
# chain 2: MSWAPVLLMLFVYCTGCGPQPVLHQPPAMSSALGTTIRLTCTLRNDHDIGVYSVYWYQQRPGHPPRFLLRYFSQSDKSQGPQVPPRFSGSKDVARNRGYLSISVTHVFGSGTQLTVLSQPKATQVQLVQ
# B10: HC 10/SLC 3 (antibody)
# chain 1: B9 chain 1
# chain 2: B5 chain 2
# B11: HC 4/SLC 5 (antibody)
# chain 1: GQGTLVTVSSASTKQPVLHQPPAMSSALGTTIRLTCTLRNDHDIGVYSVYWYQQRPGHPPRFLLRYFSQSDKSQGPQVPPRFSGSKDVARNRGYLSISELQPEDEAMYYCAMGARSRCWPRGFQSKHNSVTHVFGSGTQLTVLSQPKATPSVTLFPPSSEELQANKATLVCLMNDFYPGILTVTWKADGTPITQGVEMTTPSKQSNNKYAASSYLSLTPEQWRSRRSYSCQVMHEGSTVEKTVAPAECS
# chain 2: B7 chain 2
# B12: HC 7/SLC 8 (antibody)
# chain 1: GQGTLVTVSSASTKGPSQPVLHQPPAMSSALGTTIRLTCTLRNDHDIGVYSVYWYQQRPGHPPRFLLRYFSQSDKSQGPQVPPRFSGSKDVARNRGYLSISELQPEDEAMYYCAMGARSRCWPRGFQSKHNSVTHVFGSGTQLTVLSQPKATPSVTLFPPSSEELQANKATLVCLMNDFYPGILTVTWKADGTPITQGVEMTTPSKQSNNKYAASSYLSLTPEQWRSRRSYSCQVMHEGSTVEKTVAPAECS
# chain 2: MSWAPVLLMLFVYCTGCGPQPVLHQPPAMSSALGTTIRLTCTLRNDHDIGVYSVYWYQQRPGHPPRFLLRYFSQSDKSQGPQVPPRFSGSKDVARNRGYLSISVTHVFGSGTQLTVLSQPKATPSQVQLVQ
# B13: HC 7/SLC 7 (antibody)
# chain 1: B12 chain 1
# chain 2: MSWAPVLLMLFVYCTGCGPQPVLHQPPAMSSALGTTIRLTCTLRNDHDIGVYSVYWYQQRPGHPPRFLLRYFSQSDKSQGPQVPPRFSGSKDVARNRGYLSISVTHVFGSGTQLTVLSQPKATPQVQLVQ
# B14: HC 7/SLC 3 (antibody)
# chain 1: B12 chain 1
# chain 2: B5 chain 2
# Biological target: T1, Placenta Growth Factor (PlGF), human
# Experiment: ELISA
row,EC50 [nM],Binder
1,0.229,B1
2,0.211,B2
3,0.066,B3
4,0.207,B4
5,0.181,B5
6,0.053,B6
7,0.256,B7
8,0.047,B8
9,0.089,B9
10,0.121,B10
11,0.282,B11
12,0.095,B12
13,0.106,B13
14,0.182,B14

# Biological target: Hepatocyte Growth Factor (HGF), human (human, UniProt P14210 32-728)
# Sequence (P14210 32-728): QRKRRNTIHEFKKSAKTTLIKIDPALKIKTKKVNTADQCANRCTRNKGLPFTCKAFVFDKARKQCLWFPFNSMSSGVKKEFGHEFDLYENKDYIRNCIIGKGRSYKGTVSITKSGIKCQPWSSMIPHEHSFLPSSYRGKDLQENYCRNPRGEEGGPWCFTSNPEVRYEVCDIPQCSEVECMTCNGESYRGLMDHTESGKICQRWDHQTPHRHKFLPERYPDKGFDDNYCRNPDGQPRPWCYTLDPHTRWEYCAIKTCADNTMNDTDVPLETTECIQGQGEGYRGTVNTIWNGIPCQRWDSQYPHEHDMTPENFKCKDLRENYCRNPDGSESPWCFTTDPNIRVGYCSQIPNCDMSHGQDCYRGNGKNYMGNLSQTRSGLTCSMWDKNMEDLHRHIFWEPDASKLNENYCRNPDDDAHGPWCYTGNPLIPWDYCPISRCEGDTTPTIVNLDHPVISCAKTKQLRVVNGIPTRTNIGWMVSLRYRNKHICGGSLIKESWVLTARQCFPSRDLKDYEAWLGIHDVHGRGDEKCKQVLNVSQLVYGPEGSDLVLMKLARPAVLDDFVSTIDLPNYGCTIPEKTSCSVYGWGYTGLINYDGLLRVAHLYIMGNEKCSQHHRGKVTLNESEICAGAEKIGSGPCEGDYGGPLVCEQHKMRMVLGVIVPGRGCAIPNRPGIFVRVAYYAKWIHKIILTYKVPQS
# Experiment: ELISA
row,EC50 [nM],Binder
1,0.06,B1
2,0.062,B2
3,0.052,B3
4,0.065,B4
5,0.064,B5
6,0.047,B6
7,0.063,B7
8,0.049,B8
9,0.061,B9
10,0.074,B10
11,0.059,B11
12,0.056,B12
13,0.056,B13
14,0.067,B14
